Laboratory results reported in paper PMC3302767.

Columns and labels:
[1] = target: Plasmodium falciparum formin 1 FH1 and FH2 domains (Pf-Frm1-FH1FH2) (P. falciparum); test: SEC-MALS; Superdex 200 10/300 GL, 200 µl of each formin at 1 mg/ml; 50 mM sodium phosphate pH 7.0, 50 mM NaCl, 1 mM DTT; monomer to dimer
[2] = target: Plasmodium falciparum formin 1 FH2 domain with the lasso segment (Pf-Frm1-FH2) (P. falciparum); test: as above

Substance | stoichiometry N [1] | stoichiometry N [2]
Plasmodium falciparum formin 1 FH1 and FH2 domains (Pf-Frm1-FH1FH2) (domain or fragment) | 2 | –
Plasmodium falciparum formin 1 FH2 domain with the lasso segment (Pf-Frm1-FH2) (domain or fragment) | – | 2
